Patent US20180155451A1 (published 2018)

T1: FcγRIIb (human, UniProt P31994 43-217)
T1 construct: extracellular domain; also called 2b; FcgRIIb
T1 sequence (looked up): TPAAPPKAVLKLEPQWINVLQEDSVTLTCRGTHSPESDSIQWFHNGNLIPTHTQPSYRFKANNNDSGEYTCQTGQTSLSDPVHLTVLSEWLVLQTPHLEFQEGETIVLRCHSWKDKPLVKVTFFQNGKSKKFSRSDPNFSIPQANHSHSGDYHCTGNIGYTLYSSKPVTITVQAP

B1: GpH7-B3 variant L235_09D/GpL16-k0 (antibody, human IgG1, kappa)
heavy: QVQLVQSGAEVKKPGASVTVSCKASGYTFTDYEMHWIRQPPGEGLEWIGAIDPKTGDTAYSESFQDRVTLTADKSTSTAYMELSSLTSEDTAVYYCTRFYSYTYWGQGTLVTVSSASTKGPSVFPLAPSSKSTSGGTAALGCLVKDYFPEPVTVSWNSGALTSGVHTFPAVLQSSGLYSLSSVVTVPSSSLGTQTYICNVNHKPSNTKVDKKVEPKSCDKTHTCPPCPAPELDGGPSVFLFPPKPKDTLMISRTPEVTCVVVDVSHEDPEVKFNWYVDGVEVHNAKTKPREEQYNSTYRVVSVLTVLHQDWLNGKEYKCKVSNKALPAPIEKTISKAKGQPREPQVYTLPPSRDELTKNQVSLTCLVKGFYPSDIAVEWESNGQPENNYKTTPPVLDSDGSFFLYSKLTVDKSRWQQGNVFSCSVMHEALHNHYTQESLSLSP
light: DIVMTQSPLSLPVTPGEPASISCQASESLVHSNRNTYLHWYLQKPGQSPQLLIYKVSNRFSGVPDRFSGSGSGTDFTLKISRVEAEDVGVYYCSQNTHVPPTFGQGTKVEIERTVAAPSVFIFPPSDEQLKSGTASVVCLLNNFYPREAKVQWKVDNALQSGNSQESVTEQDSKDSTYSLSSTLTLSKADYEKHKVYACEVTHQGLSSPVTKSFNRGEC
notes: also called Ho Ab L235_09D
B2: GpH7-B3 variant P331_07I/GpL16-k0 (antibody, human IgG1, kappa)
heavy: not shown
light: B1 light
notes: also called Ho Ab P331_07I
B3: GpH7-B3 variant S239_06M/GpL16-k0 (antibody, human IgG1, kappa)
heavy: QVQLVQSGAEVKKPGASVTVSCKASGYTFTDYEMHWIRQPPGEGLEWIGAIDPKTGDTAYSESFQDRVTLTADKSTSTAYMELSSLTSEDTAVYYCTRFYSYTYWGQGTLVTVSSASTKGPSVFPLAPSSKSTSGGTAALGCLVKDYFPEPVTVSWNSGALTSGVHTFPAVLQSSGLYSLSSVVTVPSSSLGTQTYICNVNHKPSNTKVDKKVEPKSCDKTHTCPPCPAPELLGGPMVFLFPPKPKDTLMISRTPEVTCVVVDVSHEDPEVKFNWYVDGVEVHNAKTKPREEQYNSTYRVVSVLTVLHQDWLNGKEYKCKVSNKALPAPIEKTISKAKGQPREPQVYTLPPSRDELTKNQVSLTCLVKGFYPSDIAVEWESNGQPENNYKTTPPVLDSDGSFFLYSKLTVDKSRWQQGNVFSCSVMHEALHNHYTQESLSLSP
light: B1 light
notes: also called Ho Ab S239_06M
B4: GpH7-B3 variant L328_10E/GpL16-k0 (antibody, human IgG1, kappa)
heavy: not shown
light: B1 light
notes: also called Ho Ab L328_10E
B5: GpH7-B3 variant N325_13S/GpL16-k0 (antibody, human IgG1, kappa)
heavy: not shown
light: B1 light
notes: also called Ho Ab N325_13S
B6: GpH7-B3 variant N325_07I/GpL16-k0 (antibody, human IgG1, kappa)
heavy: not shown
light: B1 light
notes: also called Ho Ab N325_07I
B7: GpH7-B3 variant T335_10E/GpL16-k0 (antibody, human IgG1, kappa)
heavy: not shown
light: B1 light
notes: also called Ho Ab T335_10E
B8: GpH7-B3 variant T335_07I/GpL16-k0 (antibody, human IgG1, kappa)
heavy: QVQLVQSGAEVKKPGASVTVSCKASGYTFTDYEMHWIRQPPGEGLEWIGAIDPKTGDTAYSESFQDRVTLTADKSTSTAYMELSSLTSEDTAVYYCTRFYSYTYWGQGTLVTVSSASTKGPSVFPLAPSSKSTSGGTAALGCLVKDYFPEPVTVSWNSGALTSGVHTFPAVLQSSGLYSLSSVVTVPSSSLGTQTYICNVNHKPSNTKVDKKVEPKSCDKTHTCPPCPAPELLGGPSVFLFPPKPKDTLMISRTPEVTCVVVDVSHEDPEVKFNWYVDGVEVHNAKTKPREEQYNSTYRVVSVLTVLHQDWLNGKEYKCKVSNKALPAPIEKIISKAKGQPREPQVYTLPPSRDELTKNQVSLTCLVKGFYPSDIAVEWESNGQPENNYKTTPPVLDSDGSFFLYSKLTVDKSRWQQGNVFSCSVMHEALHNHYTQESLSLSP
light: B1 light
notes: also called Ho Ab T335_07I
B9: GpH7-B3 variant S267_06M/GpL16-k0 (antibody, human IgG1, kappa)
heavy: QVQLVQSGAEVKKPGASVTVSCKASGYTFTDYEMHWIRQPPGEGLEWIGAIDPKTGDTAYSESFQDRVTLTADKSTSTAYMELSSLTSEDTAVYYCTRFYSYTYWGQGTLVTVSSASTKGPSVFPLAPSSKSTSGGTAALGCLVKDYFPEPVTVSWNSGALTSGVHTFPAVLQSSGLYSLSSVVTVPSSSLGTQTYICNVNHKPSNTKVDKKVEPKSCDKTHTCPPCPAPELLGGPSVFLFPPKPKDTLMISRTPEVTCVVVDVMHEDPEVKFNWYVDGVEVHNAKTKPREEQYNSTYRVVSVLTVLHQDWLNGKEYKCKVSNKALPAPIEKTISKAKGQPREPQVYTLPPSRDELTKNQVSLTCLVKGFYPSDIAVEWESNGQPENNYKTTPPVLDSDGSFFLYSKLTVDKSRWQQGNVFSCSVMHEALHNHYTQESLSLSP
light: B1 light
notes: also called Ho Ab S267_06M
B10: GpH7-B3 variant P238_10E/GpL16-k0 (antibody, human IgG1, kappa)
heavy: not shown
light: B1 light
notes: also called Ho Ab P238_10E
B11: GpH7-B3 variant L328_13S/GpL16-k0 (antibody, human IgG1, kappa)
heavy: not shown
light: B1 light
notes: also called Ho Ab L328_13S
B12: GpH7-B3 variant L328_09D/GpL16-k0 (antibody, human IgG1, kappa)
heavy: not shown
light: B1 light
notes: also called Ho Ab L328_09D
B13: GpH7-B3 variant P271_10E/GpL16-k0 (antibody, human IgG1, kappa)
heavy: not shown
light: B1 light
notes: also called Ho Ab P271_10E
B14: GpH7-B3 variant N325_09D/GpL16-k0 (antibody, human IgG1, kappa)
heavy: not shown
light: B1 light
notes: also called Ho Ab N325_09D
B15: GpH7-B3 variant S324_06M/GpL16-k0 (antibody, human IgG1, kappa)
heavy: not shown
light: B1 light
notes: also called Ho Ab S324_06M
B16: GpH7-B3 variant N325_04F/GpL16-k0 (antibody, human IgG1, kappa)
heavy: not shown
light: B1 light
notes: also called Ho Ab N325_04F
B17: GpH7-B3 variant S337_20W/GpL16-k0 (antibody, human IgG1, kappa)
heavy: not shown
light: B1 light
notes: also called Ho Ab S337_20W
B18: GpH7-B3 variant S298_06M/GpL16-k0 (antibody, human IgG1, kappa)
heavy: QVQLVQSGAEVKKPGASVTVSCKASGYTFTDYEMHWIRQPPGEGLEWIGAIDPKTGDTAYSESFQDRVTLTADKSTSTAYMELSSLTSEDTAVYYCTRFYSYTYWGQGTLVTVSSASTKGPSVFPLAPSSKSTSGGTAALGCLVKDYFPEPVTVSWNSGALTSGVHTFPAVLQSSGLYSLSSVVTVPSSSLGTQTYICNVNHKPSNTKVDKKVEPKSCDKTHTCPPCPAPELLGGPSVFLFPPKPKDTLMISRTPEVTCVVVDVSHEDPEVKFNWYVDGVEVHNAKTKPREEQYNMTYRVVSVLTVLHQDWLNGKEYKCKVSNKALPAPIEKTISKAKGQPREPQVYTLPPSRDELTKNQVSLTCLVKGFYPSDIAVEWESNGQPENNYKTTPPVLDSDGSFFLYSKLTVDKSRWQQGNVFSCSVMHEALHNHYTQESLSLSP
light: B1 light
notes: also called Ho Ab S298_06M
B19: GpH7-B3 variant S337_16H/GpL16-k0 (antibody, human IgG1, kappa)
heavy: not shown
light: B1 light
notes: also called Ho Ab S337_16H
B20: GpH7-B3 variant S267_01G/GpL16-k0 (antibody, human IgG1, kappa)
heavy: not shown
light: B1 light
notes: also called Ho Ab S267_01G
B21: GpH7-B3 variant S337_07I/GpL16-k0 (antibody, human IgG1, kappa)
heavy: not shown
light: B1 light
notes: also called Ho Ab S337_07I
B22: GpH7-B3 variant T335_13S/GpL16-k0 (antibody, human IgG1, kappa)
heavy: not shown
light: B1 light
notes: also called Ho Ab T335_13S
B23: GpH7-B3 variant T335_16H/GpL16-k0 (antibody, human IgG1, kappa)
heavy: not shown
light: B1 light
notes: also called Ho Ab T335_16H
B24: GpH7-B3 variant T335_18N/GpL16-k0 (antibody, human IgG1, kappa)
heavy: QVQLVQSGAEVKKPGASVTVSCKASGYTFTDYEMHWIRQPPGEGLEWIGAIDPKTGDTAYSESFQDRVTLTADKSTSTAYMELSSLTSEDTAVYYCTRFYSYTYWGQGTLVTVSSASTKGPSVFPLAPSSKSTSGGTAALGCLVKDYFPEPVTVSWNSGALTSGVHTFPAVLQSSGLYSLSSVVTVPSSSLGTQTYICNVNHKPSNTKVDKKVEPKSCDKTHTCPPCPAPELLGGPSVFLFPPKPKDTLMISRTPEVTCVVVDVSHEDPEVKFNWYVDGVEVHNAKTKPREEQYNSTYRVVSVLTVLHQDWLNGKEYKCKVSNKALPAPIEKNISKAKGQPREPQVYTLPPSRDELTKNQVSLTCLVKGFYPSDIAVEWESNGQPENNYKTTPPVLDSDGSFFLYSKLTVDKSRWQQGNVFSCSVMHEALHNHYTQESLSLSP
light: B1 light
notes: also called Ho Ab T335_18N
B25: GpH7-B3 variant P238_09D/GpL16-k0 (antibody, human IgG1, kappa)
heavy: not shown
light: B1 light
notes: also called Ho Ab P238_09D
B26: GpH7-B3 variant P238_19Q/GpL16-k0 (antibody, human IgG1, kappa)
heavy: not shown
light: B1 light
notes: also called Ho Ab P238_19Q
B27: GpH7-B3 variant L235_20W/GpL16-k0 (antibody, human IgG1, kappa)
heavy: not shown
light: B1 light
notes: also called Ho Ab L235_20W
B28: GpH7-B3 variant S337_18N/GpL16-k0 (antibody, human IgG1, kappa)
heavy: not shown
light: B1 light
notes: also called Ho Ab S337_18N
B29: GpH7-B3 variant T335_19Q/GpL16-k0 (antibody, human IgG1, kappa)
heavy: not shown
light: B1 light
notes: also called Ho Ab T335_19Q
B30: GpH7-B3 variant N325_20W/GpL16-k0 (antibody, human IgG1, kappa)
heavy: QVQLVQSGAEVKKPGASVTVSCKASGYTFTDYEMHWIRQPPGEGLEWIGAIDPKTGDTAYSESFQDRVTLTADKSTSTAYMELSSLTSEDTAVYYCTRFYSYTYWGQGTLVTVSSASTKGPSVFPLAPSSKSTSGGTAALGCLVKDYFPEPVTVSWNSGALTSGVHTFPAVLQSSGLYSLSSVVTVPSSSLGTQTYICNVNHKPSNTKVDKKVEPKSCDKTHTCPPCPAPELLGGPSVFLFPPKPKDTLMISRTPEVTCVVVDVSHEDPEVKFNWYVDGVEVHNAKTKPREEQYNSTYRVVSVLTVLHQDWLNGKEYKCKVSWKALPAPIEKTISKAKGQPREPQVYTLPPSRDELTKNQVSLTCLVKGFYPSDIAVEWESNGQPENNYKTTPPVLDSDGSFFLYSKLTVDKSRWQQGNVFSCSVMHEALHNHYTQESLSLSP
light: B1 light
notes: also called Ho Ab N325_20W
B31: GpH7-B3 variant S337_15Y/GpL16-k0 (antibody, human IgG1, kappa)
heavy: not shown
light: B1 light
notes: also called Ho Ab S337_15Y
B32: GpH7-B3 variant P238_06M/GpL16-k0 (antibody, human IgG1, kappa)
heavy: not shown
light: B1 light
notes: also called Ho Ab P238_06M
B33: GpH7-B3 variant P331_10E/GpL16-k0 (antibody, human IgG1, kappa)
heavy: not shown
light: B1 light
notes: also called Ho Ab P331_10E
B34: GpH7-B3 variant P238_04F/GpL16-k0 (antibody, human IgG1, kappa)
heavy: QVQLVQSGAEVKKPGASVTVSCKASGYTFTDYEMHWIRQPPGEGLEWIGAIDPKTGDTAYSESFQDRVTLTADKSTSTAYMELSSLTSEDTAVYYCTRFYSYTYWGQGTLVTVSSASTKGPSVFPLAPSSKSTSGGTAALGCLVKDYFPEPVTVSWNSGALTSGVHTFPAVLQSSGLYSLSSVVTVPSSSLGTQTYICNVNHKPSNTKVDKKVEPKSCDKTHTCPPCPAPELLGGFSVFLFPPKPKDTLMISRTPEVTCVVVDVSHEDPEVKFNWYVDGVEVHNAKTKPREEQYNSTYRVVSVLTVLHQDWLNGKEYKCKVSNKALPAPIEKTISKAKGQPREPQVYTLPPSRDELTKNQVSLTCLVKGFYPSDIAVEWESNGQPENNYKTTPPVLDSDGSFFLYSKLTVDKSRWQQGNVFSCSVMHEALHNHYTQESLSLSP
light: B1 light
notes: also called Ho Ab P238_04F
B35: GpH7-B3 variant P238_16H/GpL16-k0 (antibody, human IgG1, kappa)
heavy: not shown
light: B1 light
notes: also called Ho Ab P238_16H
B36: GpH7-B3 variant S239_10E/GpL16-k0 (antibody, human IgG1, kappa)
heavy: not shown
light: B1 light
notes: also called Ho Ab S239_10E
B37: GpH7-B3 variant L235_15Y/GpL16-k0 (antibody, human IgG1, kappa)
heavy: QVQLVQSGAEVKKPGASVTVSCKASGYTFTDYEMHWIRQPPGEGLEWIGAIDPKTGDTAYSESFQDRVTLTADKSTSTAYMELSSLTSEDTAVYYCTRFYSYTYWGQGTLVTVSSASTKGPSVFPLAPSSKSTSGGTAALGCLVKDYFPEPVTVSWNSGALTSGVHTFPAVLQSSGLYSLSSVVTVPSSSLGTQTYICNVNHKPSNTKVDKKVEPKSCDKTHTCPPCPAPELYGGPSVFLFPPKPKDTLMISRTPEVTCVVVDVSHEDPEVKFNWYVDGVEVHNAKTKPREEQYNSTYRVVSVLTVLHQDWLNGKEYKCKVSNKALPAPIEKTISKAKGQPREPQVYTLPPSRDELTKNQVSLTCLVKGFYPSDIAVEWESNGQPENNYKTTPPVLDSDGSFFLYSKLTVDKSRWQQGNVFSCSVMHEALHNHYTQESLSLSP
light: B1 light
notes: also called Ho Ab L235_15Y
B38: GpH7-B3 variant S337_08L/GpL16-k0 (antibody, human IgG1, kappa)
heavy: not shown
light: B1 light
notes: also called Ho Ab S337_08L
B39: GpH7-B3 variant T335_15Y/GpL16-k0 (antibody, human IgG1, kappa)
heavy: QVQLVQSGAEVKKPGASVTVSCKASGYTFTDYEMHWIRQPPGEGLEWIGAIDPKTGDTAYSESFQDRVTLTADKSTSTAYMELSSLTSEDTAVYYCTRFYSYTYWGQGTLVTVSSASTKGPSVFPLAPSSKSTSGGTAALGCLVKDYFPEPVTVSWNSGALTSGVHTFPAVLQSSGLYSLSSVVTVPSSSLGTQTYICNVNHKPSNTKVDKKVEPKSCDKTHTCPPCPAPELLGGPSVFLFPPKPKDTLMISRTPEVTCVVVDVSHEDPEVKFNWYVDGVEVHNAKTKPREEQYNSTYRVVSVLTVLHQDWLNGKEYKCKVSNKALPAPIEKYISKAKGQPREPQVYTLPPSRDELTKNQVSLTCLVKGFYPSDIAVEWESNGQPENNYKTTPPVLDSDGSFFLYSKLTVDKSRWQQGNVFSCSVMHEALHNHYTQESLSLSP
light: B1 light
notes: also called Ho Ab T335_15Y
B40: GpH7-B3 variant P271_09D/GpL16-k0 (antibody, human IgG1, kappa)
heavy: not shown
light: B1 light
notes: also called Ho Ab P271_09D
B41: GpH7-B3 variant P238_15Y/GpL16-k0 (antibody, human IgG1, kappa)
heavy: not shown
light: B1 light
notes: also called Ho Ab P238_15Y
B42: GpH7-B3 variant N325_08L/GpL16-k0 (antibody, human IgG1, kappa)
heavy: not shown
light: B1 light
notes: also called Ho Ab N325_08L
B43: GpH7-B3 variant L328_02A/GpL16-k0 (antibody, human IgG1, kappa)
heavy: not shown
light: B1 light
notes: also called Ho Ab L328_02A
B44: GpH7-B3 variant P331_16H/GpL16-k0 (antibody, human IgG1, kappa)
heavy: not shown
light: B1 light
notes: also called Ho Ab P331_16H
B45: GpH7-B3 variant N325_06M/GpL16-k0 (antibody, human IgG1, kappa)
heavy: not shown
light: B1 light
notes: also called Ho Ab N325_06M
B46: GpH7-B3 variant P238_03V/GpL16-k0 (antibody, human IgG1, kappa)
heavy: not shown
light: B1 light
notes: also called Ho Ab P238_03V
B47: GpH7-B3 variant P238_20W/GpL16-k0 (antibody, human IgG1, kappa)
heavy: not shown
light: B1 light
notes: also called Ho Ab P238_20W
B48: GpH7-B3 variant S267_19Q/GpL16-k0 (antibody, human IgG1, kappa)
heavy: not shown
light: B1 light
notes: also called Ho Ab S267_19Q
B49: GpH7-B3 variant S239_03V/GpL16-k0 (antibody, human IgG1, kappa)
heavy: not shown
light: B1 light
notes: also called Ho Ab S239_03V
B50: GpH7-B3 variant P331_20W/GpL16-k0 (antibody, human IgG1, kappa)
heavy: not shown
light: B1 light
notes: also called Ho Ab P331_20W
B51: GpH7-B3 variant S239_05P/GpL16-k0 (antibody, human IgG1, kappa)
heavy: not shown
light: B1 light
notes: also called Ho Ab S239_05P
B52: GpH7-B3 variant N325_01G/GpL16-k0 (antibody, human IgG1, kappa)
heavy: not shown
light: B1 light
notes: also called Ho Ab N325_01G
B53: GpH7-B3 variant P331_15Y/GpL16-k0 (antibody, human IgG1, kappa)
heavy: not shown
light: B1 light
notes: also called Ho Ab P331_15Y
B54: GpH7-B3 variant P331_06M/GpL16-k0 (antibody, human IgG1, kappa)
heavy: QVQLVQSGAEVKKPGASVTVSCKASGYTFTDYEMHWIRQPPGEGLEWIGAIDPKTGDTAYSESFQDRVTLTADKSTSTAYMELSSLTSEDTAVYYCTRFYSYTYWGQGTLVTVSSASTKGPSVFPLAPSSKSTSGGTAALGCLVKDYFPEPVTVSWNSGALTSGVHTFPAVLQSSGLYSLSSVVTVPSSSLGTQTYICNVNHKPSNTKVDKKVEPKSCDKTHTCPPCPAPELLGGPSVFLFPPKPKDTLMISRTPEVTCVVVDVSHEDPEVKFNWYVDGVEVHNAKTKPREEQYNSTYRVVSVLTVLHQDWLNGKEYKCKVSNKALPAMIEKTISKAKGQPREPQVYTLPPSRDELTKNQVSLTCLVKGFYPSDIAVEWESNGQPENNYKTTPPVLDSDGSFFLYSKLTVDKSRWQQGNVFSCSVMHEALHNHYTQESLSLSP
light: B1 light
notes: also called Ho Ab P331_06M
B55: GpH7-B3 variant P331_03V/GpL16-k0 (antibody, human IgG1, kappa)
heavy: not shown
light: B1 light
notes: also called Ho Ab P331_03V
B56: GpH7-B3 variant N325_03V/GpL16-k0 (antibody, human IgG1, kappa)
heavy: not shown
light: B1 light
notes: also called Ho Ab N325_03V

Target: T1, FcγRIIb
Test: SPR (Biacore), binding relative to GpH7-B3/GpL16-k0 = 100
Method: Analysis of interaction between objective antibody and the FcγR was carried out using Biacore T100 (GE Healthcare). HBS-EP+ (GE Healthcare) was used as the running buffer, and the measurement temperature was set to 25° C. Chips produced by immobilizing the antigen peptide by the amine coupling method to a Series S Sencor Chip CM5 (GE Healthcare), or alternatively, chips produced by allowing preliminarily biotinylated antigen peptides to interact with and immobilize onto a Series S Sensor Chip SA (certified) (GE Healthcare) were used. Antibodies of interest were captured onto an antigen peptide-immobilized chip, and allowed to interact to each FcγR diluted with running buffer. To regenerate and repeatedly use the chip, the antibodies captured on the chip were washed off by reacting 10 mM glycine-HCl, pH 1.5.
The FcγR-binding activity of each antibody was assessed primarily using as an indicator the FcγR-binding activity and dissociation constant for FcγR.

| Ho/Con_2b | Binder |
| --- | --- |
| 78.7 % of control | B1 |
| 63.3 % of control | B2 |
| 84.3 % of control | B3 |
| 146 % of control | B4 |
| 159 % of control | B5 |
| 88.2 % of control | B6 |
| 108 % of control | B7 |
| 104 % of control | B8 |
| 187 % of control | B9 |
| 97.9 % of control | B10 |
| 147 % of control | B11 |
| 159 % of control | B12 |
| 95 % of control | B13 |
| 77 % of control | B14 |
| 104 % of control | B15 |
| 65.7 % of control | B16 |
| 99.6 % of control | B17 |
| 101 % of control | B18 |
| 103 % of control | B19 |

| Ho/Con_2b | Binder |
| --- | --- |
| 97 % of control | B20 |
| 96.6 % of control | B21 |
| 95.2 % of control | B22 |
| 97.2 % of control | B23 |
| 96.1 % of control | B24 |
| 207 % of control | B25 |
| 42.7 % of control | B26 |
| 116 % of control | B27 |
| 98 % of control | B28 |
| 97.3 % of control | B29 |
| 44 % of control | B30 |
| 93.4 % of control | B31 |
| 97.1 % of control | B32 |
| 92.3 % of control | B33 |
| 209 % of control | B34 |
| 18.8 % of control | B35 |
| 175 % of control | B36 |
| 127 % of control | B37 |
| 90.7 % of control | B38 |

| Ho/Con_2b | Binder |
| --- | --- |
| 104 % of control | B39 |
| 100 % of control | B40 |
| 114 % of control | B41 |
| 106 % of control | B42 |
| 117 % of control | B43 |
| 100 % of control | B44 |
| 159 % of control | B45 |
| 96.6 % of control | B46 |
| 12.6 % of control | B47 |
| 185 % of control | B48 |
| 108 % of control | B49 |
| 111 % of control | B50 |
| 61 % of control | B51 |
| 20.2 % of control | B52 |
| 111 % of control | B53 |
| 71.5 % of control | B54 |
| 86.6 % of control | B55 |
| 31.8 % of control | B56 |
